The test system of this experiment is HeLa cells. Briefly: Cell viability by CellTiter-Glo after STS treatment. Format: cell-based. To be noted: 24 hours after transfection, STS 2 hours. How it is done:
FIG. 13 illustrates functional studies of PGAM5 in cells. (A) PGAM5(Δ24) binds XIAP and cIAP1 in vivo. On the left, HEK293 cells were cotransfected with Flag-cIAP1 and PGAM5(FL)-Myc or PGAM5(Δ24)-Myc. Total cell lysates were analyzed by immune-blotting with anti-Flag and anti-Myc antibodies (bottom two panels). Anti-Myc immune-precipitates (IP) were subjected to immunoblot analysis using anti-Myc and anti-Flag antibodies (top two panels). On the right, PGAM5(Δ24)-Myc was transiently expressed in HEK293 cells. 36 hours after transfection, cells were lysed and subjected for Immuno-precipitation with either anti-Myc antibody or an isotype control antibody (mouse IgG). Proteins in the whole cell lysate (bottom three panels) and proteins that bind to the antibody conjugated sepharose beads (top three panels) were assayed with immunoblotting. […] 24 hours after transfection, cell viability was measured by Annexin V staining. […] Error bars represent SEM calculated from triplicate experiments. […] Cell viability is then immediately measured by CellTiter-Glo luminescent assay. […] PGAM5 levels are analyzed with anti-Myc immune-blotting before STS treatment. Error bars represent SEM calculated from triplicate samples.
HeLa cells were plated in 96 well plates and transfected with either empty vector or the PGAM5 construct. […] Luminescent signals were read using a SpectraMax (Molecular Devices) plate reader.

B1: Serine/threonine-protein phosphatase PGAM5, mitochondrial: phosphoglycerate mutase family member 5, dimeric protein phosphatase (protein, UniProt Q96HS1 1-289, looked up)
chain: MAFRQALQLAACGLAGGSAAVLFSAVAVGKPRAGGDAEPRPAEPPAWAGGARPGPGVWDPNWDRREPLSLINVRKRNVESGEEELASKLDHYKAKATRHIFLIRHSQYHVDGSLEKDRTLTPLGREQAELTGLRLASLGLKFNKIVHSSMTRAIETTDIISRHLPGVCKVSTDLLREGAPIEPDPPVSHWKPEAVQYYEDGARIEAAFRNYIHRADARQEEDSYEIFICHANVIRYIVCRALQFPPEGWLRLSLNNGSITHLVIRPNGRVALRTLGDTGFMPPDKITRS
modifications: full-length
notes: phosphoglycerate mutase family member 5, dimeric protein phosphatase
B1: the “sensitization to apoptosis inducer STS” value was “sensitized cells to the apoptosis inducer STS”.

For the origin of these results see patent US20150010525A1, “Catalytic Tagging System to Study Macro-Molecular Interactions Using Engineered Ubiquitin Ligase and Ubiquitin-Like Proteins to Facilitate Substrate Identification” (THE REGENTS OF THE UNIVERSITY OF CALIFORNIA, priority 2012, published 2015).
